According to paper PMC12754631, “Cis‐2‐decenoic acid modulates Pseudomonas aeruginosa virulence through a noncanonical transcriptional regulator” (mLife, 2025):

Legend:
[1] = biological target: T1, FadD1 (Pseudomonas aeruginosa PAO1) (UniProt Q9HYU4); assay: EMSA
T1 sequence: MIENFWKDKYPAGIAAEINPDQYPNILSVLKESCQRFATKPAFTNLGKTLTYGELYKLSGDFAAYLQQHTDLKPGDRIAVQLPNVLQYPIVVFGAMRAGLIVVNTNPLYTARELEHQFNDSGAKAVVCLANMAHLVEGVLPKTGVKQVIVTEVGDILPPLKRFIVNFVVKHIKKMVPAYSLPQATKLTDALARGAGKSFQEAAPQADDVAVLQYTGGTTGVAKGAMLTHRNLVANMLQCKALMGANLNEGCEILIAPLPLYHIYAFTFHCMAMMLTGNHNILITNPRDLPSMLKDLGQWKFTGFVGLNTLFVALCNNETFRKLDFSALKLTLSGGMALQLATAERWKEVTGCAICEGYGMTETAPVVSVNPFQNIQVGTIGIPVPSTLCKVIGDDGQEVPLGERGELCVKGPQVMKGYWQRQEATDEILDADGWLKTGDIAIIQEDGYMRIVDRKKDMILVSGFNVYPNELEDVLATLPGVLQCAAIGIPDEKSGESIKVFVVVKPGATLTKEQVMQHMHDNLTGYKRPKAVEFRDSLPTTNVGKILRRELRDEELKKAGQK

FadD1 = biological target: T2, FadD1 (Pseudomonas aeruginosa, UniProt Q9HYU4); assay: microscale thermophoresis; format: binding
T2 construct: expressed in E. coli BL21, Ni-NTA, His-tag removed by TEV protease; labelled for MST

Molecule | binding [1] | Kd (FadD1)
ATCTCATGCAGATGCCGGAGTTCTCCCTGAACTTCGCCTTGTTGCATACATGGCAAGCGCGCCATGGCGGAGCGCGACGGCTGAATATCTAGCACGAAAGTGAAAATAGAAAAGAACGAGATTTCATAAGGGCGGGCGCCGTTTTTAACAGGTTGTTCATGCGTCGCCGCTAGTTTGTTGTCTTTCACAGAACTGTTCGATGAACGGACTTGTTGCATTAGAACAATAAGTCCCGATGGAACTTCGGGGGACCGTGTGAAGCGTTCGCTGTTCAATTGTGCGCAC (double strand) [PA0692 promoter] | binds | 
CCCCCCCCC/C=C\C(=O)O [BDSF] |  | 1650 ± 210 nM
CCCCCCC/C=C\C(=O)O [cis-DA] |  | 1060 ± 140 nM
GTCGGCGTTTCATGGAATTGTCACAACCGCACAGTATCGCTTGCGGTAAAGCGGCCCAGGTGGTCGAACGTTGTCATAGGGAGGGGGATGCTCGATGGCTGAAGGCTGCGTCCTGAACGGTGCTGGCATAACAGATAGGGTTGCCATGATTTTGCCGTATCGGCAAGGCTGCGCGCTTGACAGCGTCATACCCCGGGCCAATTCTGCTGTGATGCATTTTATCGATCAGGGCTTACTGCAATGAGGAATGACGGAGGCTTTTTGCTGTGG (double strand) [rhlR promoter] | no binding | 
GTGCGCACAATTGAACAGCGAACGCTTCACACGGTCCCCCGAAGTTCCATCGGGACTTATTGTTCTAATGCAACAAGTCCGTTCATCGAACAGTTCTGTGAAAGACAACAAACTAGCGGCGACGCATGAACAACCTGTTAAAAACGGCGCTATGAAATCTCGTTCTTTTCTATTTTCACTTTCGTGCTAGATATTCAGCCGTCGCGCTCCGCCATGGCGCGCTTGCCATGTATGCAACAAGGCGAAGTTCAGGGAGAACTCCGGCATCTGCATGAGAT (double strand) [PA0692 promoter, AGGGCGG deleted] | no binding | 
